Measured values as given in paper PMC13291817.

What was measured:
[1] = target: RGH2-Exo70 domain (residues 1033-1637), purified from E. coli (barley (Hordeum vulgare)); assay: ITC; MicroCal PEAQ-ITC; […]; 25 °C; 20 mM HEPES pH 7.5, 150 mM NaCl, 5% glycerol; […]
[2] = target: RGH2^+-Exo70 domain (residues 1033-1637), purified from E. coli (barley (Hordeum vulgare)); assay: as above

Q: How did the Kd [1] turn out when “AVR-Pii^Rb, purified from E. coli (natural protein)” was run?
A: 15 µM

Q: And the Kd [2]?
A: 3.12 µM
